T1: human FcγRIIb extracellular domain, C-terminal His-tag (human, UniProt P31994 43-217)
T1 construct: also called humanFcgRIIb; not shown: His-tag added to C-terminus
T1 sequence: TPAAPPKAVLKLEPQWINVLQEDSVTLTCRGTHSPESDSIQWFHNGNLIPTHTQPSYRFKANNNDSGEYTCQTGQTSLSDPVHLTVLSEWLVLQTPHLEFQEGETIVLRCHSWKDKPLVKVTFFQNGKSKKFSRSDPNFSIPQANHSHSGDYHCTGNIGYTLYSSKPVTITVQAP

T2: human FcγRIIaR extracellular domain, C-terminal His-tag (human, UniProt P12318 34-217)
T2 construct: also called human FcγRIIa (type R); FcgRIIaR; not shown: His-tag added to C-terminus
T2 chain: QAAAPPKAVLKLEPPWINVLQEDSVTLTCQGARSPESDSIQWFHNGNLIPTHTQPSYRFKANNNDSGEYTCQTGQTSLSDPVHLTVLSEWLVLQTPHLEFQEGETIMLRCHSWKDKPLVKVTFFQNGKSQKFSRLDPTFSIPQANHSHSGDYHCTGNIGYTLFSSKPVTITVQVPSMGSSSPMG

T3: human FcγRIIaH extracellular domain, C-terminal His-tag (human, UniProt P12318 34-217)
T3 construct: also called human FcγRIIa (type H); FcgRIIaH; not shown: His-tag added to C-terminus
T3 sequence: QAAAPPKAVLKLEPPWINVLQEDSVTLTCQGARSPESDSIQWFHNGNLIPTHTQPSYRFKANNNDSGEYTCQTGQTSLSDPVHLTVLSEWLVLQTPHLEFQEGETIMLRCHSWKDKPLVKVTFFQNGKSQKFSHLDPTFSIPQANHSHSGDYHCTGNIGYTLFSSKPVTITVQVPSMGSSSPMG

T4: cynomolgus monkey FcγRIIa1 extracellular domain, C-terminal His-tag (cynomolgus monkey)
T4 construct: also called cyno FcγRIIa1; cynoFcgRIIa1; not shown: His-tag added to C-terminus
T4 chain: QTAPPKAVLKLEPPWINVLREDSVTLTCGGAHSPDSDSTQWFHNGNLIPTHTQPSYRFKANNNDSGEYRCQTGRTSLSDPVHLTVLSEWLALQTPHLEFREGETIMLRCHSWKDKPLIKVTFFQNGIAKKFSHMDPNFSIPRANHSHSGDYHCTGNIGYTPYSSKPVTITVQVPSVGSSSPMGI

T5: cynomolgus monkey FcγRIIa2 extracellular domain, His-tagged (cynomolgus monkey)
T5 construct: also called cyno FcgRIIa2; cynoFcγRIIa2; not shown: His-tag added to the C-terminus
T5 chain: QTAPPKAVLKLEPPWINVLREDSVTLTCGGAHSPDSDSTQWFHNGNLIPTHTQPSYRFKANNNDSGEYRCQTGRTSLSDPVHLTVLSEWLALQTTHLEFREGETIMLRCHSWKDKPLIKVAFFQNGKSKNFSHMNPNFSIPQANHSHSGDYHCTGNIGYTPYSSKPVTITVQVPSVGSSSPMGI

T6: cynomolgus monkey FcγRIIa1 extracellular domain, His-tagged (cynomolgus monkey)
T6 construct: also called cyno FcgRIIa1; cynoFcγRIIa1; not shown: His-tag added to the C-terminus
T6 chain: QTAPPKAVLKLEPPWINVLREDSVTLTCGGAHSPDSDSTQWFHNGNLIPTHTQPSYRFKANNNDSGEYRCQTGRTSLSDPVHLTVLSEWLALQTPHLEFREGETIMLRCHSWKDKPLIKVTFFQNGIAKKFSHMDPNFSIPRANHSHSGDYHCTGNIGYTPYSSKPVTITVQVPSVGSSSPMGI

T7: human FcγRIIaH extracellular domain, His-tagged (human, UniProt P12318 34-217)
T7 construct: also called human FcgRIIaH; FcγRIIa (type H); not shown: His-tag added to the C-terminus
T7 sequence: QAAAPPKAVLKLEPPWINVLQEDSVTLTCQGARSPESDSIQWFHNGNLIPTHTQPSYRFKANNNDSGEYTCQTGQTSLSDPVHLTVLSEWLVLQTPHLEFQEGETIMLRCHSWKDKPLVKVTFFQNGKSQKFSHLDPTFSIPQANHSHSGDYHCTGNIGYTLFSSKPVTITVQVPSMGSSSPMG

T8: cynomolgus monkey FcγRIIa3 extracellular domain, His-tagged (cynomolgus monkey)
T8 construct: also called cyno FcgRIIa3; cynoFcγRIIa3; not shown: His-tag added to the C-terminus
T8 chain: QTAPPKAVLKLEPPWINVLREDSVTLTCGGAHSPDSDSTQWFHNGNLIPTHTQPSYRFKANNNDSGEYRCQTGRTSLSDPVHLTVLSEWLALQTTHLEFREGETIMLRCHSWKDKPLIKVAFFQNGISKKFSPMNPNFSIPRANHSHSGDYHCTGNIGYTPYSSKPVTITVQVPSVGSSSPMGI


Key:
[1] = molecular target: T1, human FcγRIIb extracellular domain, …; assay: SPR (BIACORE), antibody captured, FcγR analyte
Method: (§1) The kinetic analysis of interactions between these antibodies and FcγR was carried out using BIACORE® T200 or BIACORE® 4000 (GE Healthcare). HBS-EP+ (GE Healthcare) was used as the running buffer, and the measurement temperature was set to 25° C. A chip produced by immobilizing Protein A. Protein A/G or mouse anti-human IgG kappa light chain (BD Biosciences) onto a Series S Sensor Chip CM4 or CM5 (GE Healthcare) by the amine-coupling method was used. […] After the measurement, the antibody captured on the chip was washed off by allowing reaction with 10 mM glycine-HCl, pH1.5 and 25 mM NaOH so that the chip was regenerated and used repeatedly. The sensorgrams obtained as measurement results were analyzed by the 1:1 Langmuir binding model using the BIACORE® Evaluation Software to calculate the binding rate constant ka (L/mol/s) and dissociation rate constant kd (l/s), and the dissociation constant KD (mol/L) was calculated from these values. […] Regarding such interactions, KD values were calculated using the following 1:1 binding model described in BIACORE® T100 Software Handbook BR1006-48 Edition AE.
(§2) The behavior of interacting molecules according to the 1:1 binding model on BIACORE® can be described by Equation 1: Req=C·R max/(KD+C)+RI, wherein, Req is a plot of steady-state binding levels to analyte concentration. C is concentration, RI is bulk refractive index contribution in the sample, and Rmax is analyte binding capacity of the surface. When this equation is rearranged, KD can be expressed as Equation 2: KD=C·Rmax/(Req−RI)−C. KD can be calculated by substituting the values of Rmax, RI, and C into Equation 1 or Equation 2. From the current measurement conditions, RI=0, C=2 μmol/L can be used.

[2] = molecular target: T2, human FcγRIIaR extracellular domain, …; assay: SPR (BIACORE), antibody captured, FcγR analyte
Method: as §1, §2

[3] = molecular target: T3, human FcγRIIaH extracellular domain, …; assay: SPR (BIACORE), antibody captured, FcγR analyte
Method: as §1, §2

[4] = molecular target: T4, cynomolgus monkey FcγRIIa1 …; assay: SPR (BIACORE), antibody captured, FcγR analyte
Method: as §1, §2

[5] = molecular target: T9, cynomolgus monkey FcγRIIIaS extracellular domain, C-terminal His-tag (cynomolgus monkey, UniProt A3RFZ7 21-206 (rhesus entry)); assay: SPR (BIACORE), antibody captured, FcγR analyte
T9 construct: also called cyno FcγRIIIaS; cynoFcγRIIIaS; not shown: His-tag added to C-terminus
T9 sequence (A3RFZ7 21-206): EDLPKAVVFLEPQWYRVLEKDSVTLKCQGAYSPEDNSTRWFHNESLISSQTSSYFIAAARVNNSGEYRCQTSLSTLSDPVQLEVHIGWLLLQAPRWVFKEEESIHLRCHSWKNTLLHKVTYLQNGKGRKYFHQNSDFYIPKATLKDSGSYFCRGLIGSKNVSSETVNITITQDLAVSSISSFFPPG
Method: as §1, §2

[6] = molecular target: T5, cynomolgus monkey FcγRIIa2 …; assay: SPR; KD of SG1 divided by KD of the variant;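 note: relative to parent M103205H795-SG1 carrying the SG1 human heavy chain constant region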
[7] = molecular target: T6, cynomolgus monkey FcγRIIa1 …; assay: SPR; KD of SG1 divided by KD of the variant;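 note: relative to parent M103205H795-SG1 carrying the SG1 human heavy chain constant region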
[8] = molecular target: T7, human FcγRIIaH extracellular domain, …; assay: SPR; KD of SG1 divided by KD of the variant;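 note: relative to parent M103205H795-SG1 carrying the SG1 human heavy chain constant region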
[9] = molecular target: T8, cynomolgus monkey FcγRIIa3 …; assay: SPR; KD of SG1 divided by KD of the variant;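 note: relative to parent M103205H795-SG1 carrying the SG1 human heavy chain constant region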

| Kd [1] | Kd [2] | Kd [3] | Kd [4] | Kd [5] | KD fold (SG1 = 1) [6] | KD fold (SG1 = 1) [7] | KD fold (SG1 = 1) [8] | KD fold (SG1 = 1) [9] | Binder |
| --- | --- | --- | --- | --- | --- | --- | --- | --- | --- |
| 490 nM | 870 nM | 490 nM | 1100 nM | 3200 nM |  |  |  |  | M103205H795-MY101 / M103202L889-SK1 (antibody, human IgG1, kappa, CH with G236N/H268E/A330K/P396M against SG1 (EU numbering); also called MS1032LO06-MY101) heavy: QVTLKESGPVLVKPTETLTLTCTVSGIDLSHDDISWVRQAPGKGLEWVGIISYAGSTYYASWAKGRLTISKDTSKNQVVLTMTNMDPVDTATYYCARGVPAYSHGGDLWGQGTLVTVSSASTKGPSVFPLAPSSKSTSGGTAALGCLVKDYFPEPVTVSWNSGALTSGVHTFPAVLQSSGLYSLSSVVTVPSSSLGTQTYICNVNHKPSNTKVDKKVEPKSCDKTHTCPPCPAPELLNGPSVFLFPPKPKDTLMISRTPEVTCVVVDVSEEDPEVKFNWYVDGVEVHNAKTKPREEQYNSTYRVVSVLTVLHQDWLNGKEYKCKVSNKALPKPIEKTISKAKGQPREPQVYTLPPSREEMTKNQVSLTCLVKGFYPSDIAVEWESNGQPENNYKTTPMVLDSDGSFFLYSKLTVDKSRWQQGNVFSCSVMHEALHNHYTQKSLSLSP light: DIVMTQSPATLSLSPGERATLSCTSSQSVYHANWLSWFQQKPGQPPKLLIYWASTLAYGVPSRFSGSGSGTDFTLTISSLQPEDAATYYCAGGYGGGRYAFGQGTKVEIKRTVAAPSVFIFPPSDEQLKSGTASVVCLLNNFYPREAKVQWKVDNALQSGNSQESVTEQDSKDSTYSLSSTLTLSKADYEKHKVYACEVTHQGLSSPVTKSFNRGEC |
|  |  |  |  |  | 2.6 fold | 1.3 fold | 3.5 fold | 2.3 fold | M103205H795-MY267/M103202L889-SK1 (antibody, human IgG1, kappa, copies: 2 + 2) heavy: QVTLKESGPVLVKPTETLTLTCTVSGIDLSHDDISWVRQAPGKGLEWVGIISYAGSTYYASWAKGRLTISKDTSKNQVVLTMTNMDPVDTATYYCARGVPAYSHGGDLWGQGTLVTVSSASTKGPSVFPLAPSSKSTSGGTAALGCLVKDYFPEPVTVSWNSGALTSGVHTFPAVLQSSGLYSLSSVVTVPSSSLGTQTYICNVNHKPSNTKVDKKVEPKSCDKTHTCPPCPAPELLIGPSVFLFPPKPKDTLMISRTPEVTCVVVDVSDEDPEVKFNWYVDGVEVHNAKTKPREEQYNSTYRVVSVLTVLHQDWLNGKEYKCKVSNKALPKPIEKTISKAKGQPREPQVYTLPPSREEMTKNQVSLTCLVKGFYPSDIAVEWESNGQPENNYKTTPPVLDSDGSFFLYSKLTVDKSRWQQGNVFSCSVMHEALHNHYTQKSLSLSP light: DIVMTQSPATLSLSPGERATLSCTSSQSVYHANWLSWFQQKPGQPPKLLIYWASTLAYGVPSRFSGSGSGTDFTLTISSLQPEDAATYYCAGGYGGGRYAFGQGTKVEIKRTVAAPSVFIFPPSDEQLKSGTASVVCLLNNFYPREAKVQWKVDNALQSGNSQESVTEQDSKDSTYSLSSTLTLSKADYEKHKVYACEVTHQGLSSPVTKSFNRGEC |
| 1100 nM | 1900 nM | 910 nM | 1400 nM | 5700 nM |  |  |  |  | M103205H795-MY201 / M103202L889-SK1 (antibody, human IgG1, kappa, CH with G236N/H268D/A330K against SG1 (EU numbering); also called MS1032LO06-MY201) heavy: QVTLKESGPVLVKPTETLTLTCTVSGIDLSHDDISWVRQAPGKGLEWVGIISYAGSTYYASWAKGRLTISKDTSKNQVVLTMTNMDPVDTATYYCARGVPAYSHGGDLWGQGTLVTVSSASTKGPSVFPLAPSSKSTSGGTAALGCLVKDYFPEPVTVSWNSGALTSGVHTFPAVLQSSGLYSLSSVVTVPSSSLGTQTYICNVNHKPSNTKVDKKVEPKSCDKTHTCPPCPAPELLNGPSVFLFPPKPKDTLMISRTPEVTCVVVDVSDEDPEVKFNWYVDGVEVHNAKTKPREEQYNSTYRVVSVLTVLHQDWLNGKEYKCKVSNKALPKPIEKTISKAKGQPREPQVYTLPPSREEMTKNQVSLTCLVKGFYPSDIAVEWESNGQPENNYKTTPPVLDSDGSFFLYSKLTVDKSRWQQGNVFSCSVMHEALHNHYTQKSLSLSP light: DIVMTQSPATLSLSPGERATLSCTSSQSVYHANWLSWFQQKPGQPPKLLIYWASTLAYGVPSRFSGSGSGTDFTLTISSLQPEDAATYYCAGGYGGGRYAFGQGTKVEIKRTVAAPSVFIFPPSDEQLKSGTASVVCLLNNFYPREAKVQWKVDNALQSGNSQESVTEQDSKDSTYSLSSTLTLSKADYEKHKVYACEVTHQGLSSPVTKSFNRGEC |
